Target: fluorescently-labeled taxol-stabilized microtubules

B1: purified recombinant full-length Kif19 (protein)
chain: MKDSGDSKDQQLMVALRVRPISVAELEEGATLIAHKVDEQMVVLMDPMEDPDDILRAHRSREKSYLFDVAFDFTATQEMVYQATTKSLIEGVISGYNATVFAYGPTGCGKTYTMLGTDQEPGIYVQTLNDLFRAIEETSNDMEYEVSMSYLEIYNEMIRDLLNPSLGYLELREDSKGVIQVAGITEVSTINAKEIMQLLMKGNRQRTQEPTAANQTSSRSHAVLQVTVRQRSRVKNILQEVRQGRLFMIDLAGSERASQTQNRGQRMKEGAHINRSLLALGNCINALSDKGSNKYINYRDSKLTRLLKDSLGGNSRTVMIAHISPASSAFEESRNTLTYAGRAKNIKTRVKQNLLNVSYHIAQYTSIIADLRGEIQRLKRKIDEQTGRGQARGRQDRGDIRHIQAEVQLHSGQGEKAGMGQLREQLASAFQEQMDVRRRLLELENRAMEVQIDTSRHLLTIAGWKHEKSRRALKWREEQRKECYAKDDSEKDSDTGDDQPDILEPPEVAAARESIAALVDEQKQLRKQKLALEQRCRELRARGRRLEETLPRRIGSEEQREVLSLLCRVHELEVENTEMQSHALLRDGALRHRHEAVRRLEQHRSLCDEIIQGQRQIIDDYNLAVPQRLEELYEVYLRELEEGSLEQATIMDQVASRALQDSSLPKITPAGTSLTPDSDLESVKTLSSDAQHLQNSALPPLSTESEGHHVFKAGTGAWQAKSSSVPTPPPIQLGSLVTQEAPAQDSLGSWINSSPDSSENLSEIPLSHKERKEILTGTKCIWVKAARRRSRALGTEGRHLLAPATERSSLSLHSLSEGDDARPPGPLACKRPPSPTLQHAASEDNLSSSTGEAPSRAVGHHGDGPRPWLRGQKKSLGKKREESLEAKRRKRRSRSFEVTGQGLSHPKTHLLGPHQAERISDHRMPVCRHPAPGIRHLGKVTLPLAKVKLPPSQNTGPGDSSPLAVPPNPGGGSRRATRGPRLPHGTSTHGKDGCSRHN
microtubule depolymerization in vitro (TIRF time series, 5 minutes): Kif-19 depolymerizes microtubules in vitro

— patent US9994845
